Holding throughout (assay): cell-based or functional assay
One assay has as its target T1, FPRL1 (UniProt P25090 1-351).
T1 sequence (looked up): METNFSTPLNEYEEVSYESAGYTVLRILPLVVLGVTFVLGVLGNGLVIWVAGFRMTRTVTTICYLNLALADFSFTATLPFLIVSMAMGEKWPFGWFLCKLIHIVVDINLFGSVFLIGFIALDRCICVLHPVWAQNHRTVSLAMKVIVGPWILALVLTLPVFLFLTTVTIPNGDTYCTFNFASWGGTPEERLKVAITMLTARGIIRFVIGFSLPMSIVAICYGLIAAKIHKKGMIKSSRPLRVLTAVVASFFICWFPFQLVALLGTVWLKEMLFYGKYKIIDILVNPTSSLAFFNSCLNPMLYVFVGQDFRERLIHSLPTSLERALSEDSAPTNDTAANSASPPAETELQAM

For a further assay, the target named is T2, FPR1 (UniProt P21462 1-350).
T2 sequence (looked up): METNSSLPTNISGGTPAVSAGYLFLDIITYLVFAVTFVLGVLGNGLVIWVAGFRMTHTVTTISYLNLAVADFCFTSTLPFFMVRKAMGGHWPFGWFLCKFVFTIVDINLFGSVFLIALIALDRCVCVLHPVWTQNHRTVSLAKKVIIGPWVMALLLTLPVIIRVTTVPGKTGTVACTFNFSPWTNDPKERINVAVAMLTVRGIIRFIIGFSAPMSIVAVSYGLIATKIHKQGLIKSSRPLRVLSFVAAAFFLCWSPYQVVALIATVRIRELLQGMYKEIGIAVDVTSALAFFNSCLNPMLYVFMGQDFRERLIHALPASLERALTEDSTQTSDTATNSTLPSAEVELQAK

For the next assay, the target named is F2RL1 (UniProt P55085 26-397, limits assumed).

Where no end group is shown, it is not given here. [ ]: non-standard residue; d: D form.

Take WKYMV[dM]-NH2 [WKYMVm-NH2]: the “EC80, arrestin, agonist mode” value with FPRL1 was 11.8 nM; in the assay with FPR1, 25.2 nM.

On to SLIGRL-NH2 [SLIGRL-NH2], for which, in the assay with F2RL1, the “EC50 (RC50), arrestin, agonist mode” value came out at 552 nM and the “EC80, arrestin, agonist mode” value worked out at 2130 nM.
